# According to US20030157712A1 (VANDERBILT UNIVERSITY, published 2003):
# B1: endogenous EphB1 receptor of human endothelial cells (HRMEC; HUVEC) (receptor, UniProt P54762 18-984, looked up)
# chain: MEETLMDTRTATAELGWTANPASGWEEVSGYDENLNTIRTYQVCNVFEPNQNNWLLTTFINRRGAHRIYTEMRFTVRDCSSLPNVPGSCKETFNLYYYETDSVIATKKSAFWSEAPYLKVDTIAADESFSQVDFGGRLMKVNTEVRSFGPLTRNGFYLAFQDYGACMSLLSVRVFFKKCPSIVQNFAVFPETMTGAESTSLVIARGTCIPNAEEVDVPIKLYCNGDGEWMVPIGRCTCKPGYEPENSVACKACPAGTFKASQEAEGCSHCPSNSRSPAEASPICTCRTGYYRADFDPPEVACTSVPSGPRNVISIVNETSIILEWHPPRETGGRDDVTYNIICKKCRADRRSCSRCDDNVEFVPRQLGLTECRVSISSLWAHTPYTFDIQAINGVSSKSPFPPQHVSVNITTNQAAPSTVPIMHQVSATMRSITLSWPQPEQPNGIILDYEIRYYEKEHNEFNSSMARSQTNTARIDGLRPGMVYVVQVRARTVAGYGKFSGKMCFQTLTDDDYKSELREQLPLIAGSAAAGVVFVVSLVAISIVCSRKRAYSKEAVYSDKLQHYSTGRGSPGMKIYIDPFTYEDPNEAVREFAKEIDVSFVKIEEVIGAGEFGEVYKGRLKLPGKREIYVAIKTLKAGYSEKQRRDFLSEASIMGQFDHPNIIRLEGVVTKSRPVMIITEFMENGALDSFLRQNDGQFTVIQLVGMLRGIAAGMKYLAEMNYVHRDLAARNILVNSNLVCKVSDFGLSRYLQDDTSDPTYTSSLGGKIPVRWTAPEAIAYRKFTSASDVWSYGIVMWEVMSFGERPYWDMSNQDVINAIEQDYRLPPPMDCPAALHQLMLDCWQKDRNSRPRFAEIVNTLDKMIRNPASLKTVATITAVPSQPLLDRSIPDFTAFTTVDDWLSAIKMVQYRDSFLTAGFTSLQLVTQMTSEDLLRIGITLAGHQKKILNSIHSMRVQISQSPTAMA
# notes: whole, on cells; In the co-precipitation entries the receptor was tyrosine phosphorylated after stimulation of the cells; also called ELK
# Target: T1, endogenous EphB2 receptor of HRMEC (human, UniProt P29323 19-1055)
# T1 construct: whole, on cells; also called Nuk
# T1 sequence (looked up): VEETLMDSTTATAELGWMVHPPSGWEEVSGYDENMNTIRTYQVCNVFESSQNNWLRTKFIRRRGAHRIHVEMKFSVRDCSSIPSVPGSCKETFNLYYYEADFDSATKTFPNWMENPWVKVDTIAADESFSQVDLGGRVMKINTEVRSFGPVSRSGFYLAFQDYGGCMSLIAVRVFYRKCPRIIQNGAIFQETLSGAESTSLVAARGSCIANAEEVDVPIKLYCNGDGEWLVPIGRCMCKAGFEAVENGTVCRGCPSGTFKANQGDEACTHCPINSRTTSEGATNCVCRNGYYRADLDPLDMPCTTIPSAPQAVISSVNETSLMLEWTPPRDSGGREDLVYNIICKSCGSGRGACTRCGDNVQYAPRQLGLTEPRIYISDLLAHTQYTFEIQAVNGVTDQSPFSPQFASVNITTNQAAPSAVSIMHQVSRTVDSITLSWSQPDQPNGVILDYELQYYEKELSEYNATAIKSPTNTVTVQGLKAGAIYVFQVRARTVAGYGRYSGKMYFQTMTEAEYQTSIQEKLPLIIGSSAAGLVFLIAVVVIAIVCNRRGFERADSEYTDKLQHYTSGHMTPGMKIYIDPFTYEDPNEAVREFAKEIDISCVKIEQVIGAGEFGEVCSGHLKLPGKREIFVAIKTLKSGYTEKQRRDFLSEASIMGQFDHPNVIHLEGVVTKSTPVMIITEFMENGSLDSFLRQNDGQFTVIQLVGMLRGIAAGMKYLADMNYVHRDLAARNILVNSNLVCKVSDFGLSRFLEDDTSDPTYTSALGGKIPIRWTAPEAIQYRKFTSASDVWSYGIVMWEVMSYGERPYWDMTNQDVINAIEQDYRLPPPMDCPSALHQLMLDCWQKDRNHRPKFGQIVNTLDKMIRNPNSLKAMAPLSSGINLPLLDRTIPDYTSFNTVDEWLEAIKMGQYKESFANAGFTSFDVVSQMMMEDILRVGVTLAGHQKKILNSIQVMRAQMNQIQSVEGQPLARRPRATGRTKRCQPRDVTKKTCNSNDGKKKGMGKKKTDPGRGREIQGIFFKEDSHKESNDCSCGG
# Assay: co-immunoprecipitation from HRMEC stimulated with dimeric or multimeric ephrin-B1/Fc, immunoblot
# Description: Ligand stimulation and immunoprecipitation of endogenous EphB receptors. Primary HRMEC were used at passages 3-6, as described (12). […] Ninety min prior to ligand stimulation, cells (2×10⁵cells/60 mm dish) were plated on Matrigel-(Collaborative Biomedical Products, Becton Dickinson, Bedford, Mass., as recommended) or fibronectin-coated (29) dishes. […] Cells were incubated with agonists at 37° C. for 10 min, or as described in the figure legends. Immunoprecipitations were conducted on either cell lysates (P19) or on Triticum vulgaris lectin affinity purified fractions of HRMEC (15) (needed to reduce the background from Matrigel). Precipitated proteins were analyzed by immunoblot (15).
binder,measurement,value
B1,binding result,no binding
